T1: rhIL-4R-Fc (ILR-H5253, Acro) (human, UniProt P24394 26-232)
T1 sequence: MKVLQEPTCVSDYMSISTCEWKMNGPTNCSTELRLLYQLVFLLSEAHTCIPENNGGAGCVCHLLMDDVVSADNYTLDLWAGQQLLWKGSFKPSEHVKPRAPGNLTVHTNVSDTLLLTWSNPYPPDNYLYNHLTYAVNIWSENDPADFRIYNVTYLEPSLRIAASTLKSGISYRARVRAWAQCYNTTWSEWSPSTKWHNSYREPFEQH

B1: 25G7-(scdsFv)-PE38KDEL (scFv)
scFv: EVQLVESGGGLVQPGGSLRLSCAASGFTFSDYGMHWVRQAPGKCLEWVAFISSGSSIIYYADIVKGRSTISRDNAKNTLYLQMNSLRAEDTAVYYCTRGNKRGFFDYWGQGTLVTVSSGGGGSGGGGSGGGGSEIVLTQSPATLSLSPGERATLSCRASSSVPYMYWYQQKPGQAPRLLIYLTSNLASGIPARFSGSGSGTDFTLTISSLEPEDFAVYYCQQWRAYPPMLTFGCGTKVEIKASGGPEEGGSLAALTAHQACHLPLETFTRHRQPRGWEQLEQCGYPVQRLVALYLAARLSWNQVDQVIRNALASPGSGGDLGEAIREQPEQARLALTLAAAESERFVRQGTGNDEAGAANGPADSGDALLERNYPTGAEFLGDGGDVSFSTRGTQNWTVERLLQAHRQLEERGYVFVGYHGTFLEAAQSIVFGGVRARSQDLDAIWRGFYIAGDPALAYGYAQDQEPDARGRIRNGALLRVYVPRSSLPGFYRTSLTLAAPEAAGEVERLIGHPLPLRLDAITGPEEEGGRLETILGWPLAERTVVIPSAIPTDPRNVGGDLDPSSIPDKEQAISALPDYASQPGKPPKDEL

Columns and labels:
[1] = molecular target: human IL-4R overexpressed on glioblastoma cells (LN229-IL4R, U87-IL4R, U251-IL4R) (human) (UniProt P24394); experiment: cell-based or functional assay
[2] = molecular target: human IL-4R overexpressed on glioblastoma cells (LN229-IL4R, U87-IL4R, U251-IL4R) (human) (UniProt P24394); experiment: flow cytometry, U87-IL4R cells, 20 ug/mL
[3] = molecular target: human IL-4R overexpressed on glioblastoma cells (LN229-IL4R, U87-IL4R, U251-IL4R) (human) (UniProt P24394); experiment: flow cytometry, U251-IL4R cells, 20 ug/mL
[4] = molecular target: human IL-4R overexpressed on glioblastoma cells (LN229-IL4R, U87-IL4R, U251-IL4R) (human) (UniProt P24394); experiment: flow cytometry, LN229-IL4R cells, 20 ug/mL
[5] = molecular target: human IL-4R overexpressed on glioblastoma cells (LN229-IL4R, U87-IL4R, U251-IL4R) (human) (UniProt P24394); experiment: flow cytometry, U87-IL4R cells, 0.027435 ug/mL
[6] = molecular target: human IL-4R overexpressed on glioblastoma cells (LN229-IL4R, U87-IL4R, U251-IL4R) (human) (UniProt P24394); experiment: flow cytometry, U87-IL4R cells, 0.082305 ug/mL
[7] = molecular target: human IL-4R overexpressed on glioblastoma cells (LN229-IL4R, U87-IL4R, U251-IL4R) (human) (UniProt P24394); experiment: flow cytometry, U87-IL4R cells, 0.246914 ug/mL
[8] = molecular target: human IL-4R overexpressed on glioblastoma cells (LN229-IL4R, U87-IL4R, U251-IL4R) (human) (UniProt P24394); experiment: flow cytometry, U87-IL4R cells, 0.740741 ug/mL
[9] = molecular target: human IL-4R overexpressed on glioblastoma cells (LN229-IL4R, U87-IL4R, U251-IL4R) (human) (UniProt P24394); experiment: flow cytometry, U87-IL4R cells, 2.222222 ug/mL
[10] = molecular target: human IL-4R overexpressed on glioblastoma cells (LN229-IL4R, U87-IL4R, U251-IL4R) (human) (UniProt P24394); experiment: flow cytometry, U87-IL4R cells, 6.666667 ug/mL
[11] = molecular target: human IL-4R overexpressed on glioblastoma cells (LN229-IL4R, U87-IL4R, U251-IL4R) (human) (UniProt P24394); experiment: flow cytometry, U251-IL4R cells, 0.027435 ug/mL
[12] = molecular target: human IL-4R overexpressed on glioblastoma cells (LN229-IL4R, U87-IL4R, U251-IL4R) (human) (UniProt P24394); experiment: flow cytometry, U251-IL4R cells, 0.082305 ug/mL
[13] = molecular target: human IL-4R overexpressed on glioblastoma cells (LN229-IL4R, U87-IL4R, U251-IL4R) (human) (UniProt P24394); experiment: flow cytometry, U251-IL4R cells, 0.246914 ug/mL
[14] = molecular target: human IL-4R overexpressed on glioblastoma cells (LN229-IL4R, U87-IL4R, U251-IL4R) (human) (UniProt P24394); experiment: flow cytometry, U251-IL4R cells, 0.740741 ug/mL
[15] = molecular target: human IL-4R overexpressed on glioblastoma cells (LN229-IL4R, U87-IL4R, U251-IL4R) (human) (UniProt P24394); experiment: flow cytometry, U251-IL4R cells, 2.222222 ug/mL
[16] = molecular target: human IL-4R overexpressed on glioblastoma cells (LN229-IL4R, U87-IL4R, U251-IL4R) (human) (UniProt P24394); experiment: flow cytometry, U251-IL4R cells, 6.666667 ug/mL
[17] = molecular target: human IL-4R overexpressed on glioblastoma cells (LN229-IL4R, U87-IL4R, U251-IL4R) (human) (UniProt P24394); experiment: flow cytometry, LN229-IL4R cells, 0.027435 ug/mL
[18] = molecular target: human IL-4R overexpressed on glioblastoma cells (LN229-IL4R, U87-IL4R, U251-IL4R) (human) (UniProt P24394); experiment: flow cytometry, LN229-IL4R cells, 0.082305 ug/mL
[19] = molecular target: human IL-4R overexpressed on glioblastoma cells (LN229-IL4R, U87-IL4R, U251-IL4R) (human) (UniProt P24394); experiment: flow cytometry, LN229-IL4R cells, 0.246914 ug/mL
[20] = molecular target: human IL-4R overexpressed on glioblastoma cells (LN229-IL4R, U87-IL4R, U251-IL4R) (human) (UniProt P24394); experiment: flow cytometry, LN229-IL4R cells, 0.740741 ug/mL
[21] = molecular target: human IL-4R overexpressed on glioblastoma cells (LN229-IL4R, U87-IL4R, U251-IL4R) (human) (UniProt P24394); experiment: flow cytometry, LN229-IL4R cells, 2.222222 ug/mL
[22] = molecular target: human IL-4R overexpressed on glioblastoma cells (LN229-IL4R, U87-IL4R, U251-IL4R) (human) (UniProt P24394); experiment: flow cytometry, LN229-IL4R cells, 6.666667 ug/mL
[23] = molecular target: rhIL-4R-Fc (ILR-H5253, Acro) (human) (UniProt P24394); experiment: SPR Biacore 8K, rhIL-4R-Fc captured by anti-human IgG on CM5, immunotoxin as analyte
[24] = molecular target: T1, rhIL-4R-Fc (ILR-H5253, Acro)

Molecule	Mean MFI [2]	Mean MFI [3]	Mean MFI [4]	Mean MFI [5]	Mean MFI [6]	Mean MFI [7]	Mean MFI [8]	Mean MFI [9]	Mean MFI [10]	Mean MFI [11]	Mean MFI [12]	Mean MFI [13]	Mean MFI [14]	Mean MFI [15]	Mean MFI [16]	Mean MFI [17]	Mean MFI [18]	Mean MFI [19]	Mean MFI [20]	Mean MFI [21]	other results
MDNA55 (ligand)	32700 MFI	22600 MFI	24300 MFI	9120 MFI	12000 MFI	17100 MFI	21600 MFI	25300 MFI	29700 MFI	3180 MFI	5860 MFI	8130 MFI	10700 MFI	13700 MFI	17500 MFI	4470 MFI	8310 MFI	12400 MFI	16200 MFI	19400 MFI	in vitro killing (CTG cell viability), LN229-IL4R cells [1]: 80%; Mean MFI [22]: 21100 MFI; Kd [23]: 439 pM; koff [23]: 0.0029 s⁻¹; kon [23]: 6.62e+06 M⁻¹ s⁻¹
hIgG1 isotype control (antibody)	318 MFI	275 MFI	231 MFI	588 MFI	394 MFI	322 MFI	339 MFI	334 MFI	306 MFI	263 MFI	274 MFI	287 MFI	284 MFI	282 MFI	288 MFI	352 MFI	318 MFI	300 MFI	286 MFI	361 MFI	Mean MFI [22]: 244 MFI
B1																					Kd [24]: 101 pM; koff [24]: 0.000279 s⁻¹; kon [24]: 2.77e+06 M⁻¹ s⁻¹

From US20240075158A1 (JIANGSU HENGRUI PHARMACEUTICAL, published 2024)
